Results from paper PMC9811728.

Legend:
[1] = target: SC-CAT (SpyCatcher fused to the N-terminus of catalase) (Bacillus subtilis strain 168); assay: SEC; elution profiles compared with molecular weight standards
[2] = target: SC-LOX (SpyCatcher fused to the N-terminus of lactate oxidase) (Aerococcus viridans); assay: as above

| Substance | stoichiometry N [1] | stoichiometry N [2] |
| --- | --- | --- |
| SC-CAT (SpyCatcher fused to the N-terminus of catalase) (enzyme) | 4 |  |
| SC-LOX (SpyCatcher fused to the N-terminus of lactate oxidase) (enzyme) |  | 4 |
